Source: US20220098305A1 (Hoffmann-La Roche, published 2022)
Where two headings read alike, the source gives them in different places. One block for each binder: values may come before it.

Tests used:
[1] = target: T1, murine FAP (murine, UniProt P97321 26-761, limits assumed); assay: flow cytometry, % positive cells; cells bearing murine FAP not given
T1 construct: also called mouse FAP

[2] = target: T2, murine ICOS (murine, UniProt Q9WVS0 21-200); assay: flow cytometry, pre-activated murine splenocytes (figure legend: recombinant CHO cells)
T2 sequence: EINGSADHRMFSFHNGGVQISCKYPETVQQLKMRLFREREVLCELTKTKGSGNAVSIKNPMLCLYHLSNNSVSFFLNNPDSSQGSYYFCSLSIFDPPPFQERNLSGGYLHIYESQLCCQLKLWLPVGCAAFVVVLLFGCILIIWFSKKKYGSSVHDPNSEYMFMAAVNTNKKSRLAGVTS

[3] = target: T3, human ICOS (human, UniProt Q9Y6W8 21-199); assay: flow cytometry, CHO cells expressing human ICOS
T3 construct: The cell that carries it is named under assay; also called huICOS; CD278
T3 sequence: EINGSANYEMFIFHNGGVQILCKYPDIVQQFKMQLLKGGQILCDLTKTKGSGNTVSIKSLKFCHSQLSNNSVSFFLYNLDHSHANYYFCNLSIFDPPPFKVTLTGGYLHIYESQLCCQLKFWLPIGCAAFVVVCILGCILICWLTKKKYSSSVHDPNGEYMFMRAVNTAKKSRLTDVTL
Method: (§1) Briefly, suspension cells were harvested, counted, checked for viability and re-suspended at 1 million cells per ml in FACS buffer (PBS with 0.1% BSA). […] The staining was fixed for 20 min at 4° C. in the dark, using 75 μl of 1% PFA in FACS buffer per well.
(§2) Fluorescence was analyzed by FACS using a FACS Fortessa (Software FACS Diva). Binding curves and EC₅₀ values were obtained using GraphPadPrism 7.

[4] = target: T4, cynomolgus ICOS (cynomolgus, UniProt Q9Y6W8 21-195 (human entry)); assay: flow cytometry, activated cynomolgus PBMCs, CD4+ subset
T4 chain: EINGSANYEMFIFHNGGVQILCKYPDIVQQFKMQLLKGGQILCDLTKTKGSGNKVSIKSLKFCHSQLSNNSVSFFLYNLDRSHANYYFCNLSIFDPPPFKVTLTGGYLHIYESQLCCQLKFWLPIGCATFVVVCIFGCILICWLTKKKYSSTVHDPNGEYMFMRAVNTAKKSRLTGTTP
Method: as §1
(§3) Briefly, cynomolgus PBMCs were activated for 48 hours using Dynabeads™ Human T-Activator CD3/CD28 (Thermo Fischer #11131D) according to manufacturer instruction and stored in RPMI1640 medium containing 10% FCS and 1% Glutamax (Gibco 35050061) at 37° C., in a humidified incubator until subsequent binding experiment was performed, as described above.

[5] = target: T5, human FAP (human, UniProt Q12884 1-760); assay: flow cytometry, NIH/3T3-huFAP clone 19 cells
T5 construct: also called hu FAP
Method: as §1, §2

[6] = target: T1, murine FAP; assay: flow cytometry, cells carrying murine FAP not told
[7] = target: T4, cynomolgus ICOS; assay: flow cytometry, activated cynomolgus PBMCs, CD8+ subset
Method: as §1, §3

[8] = target: T4, cynomolgus ICOS; assay: as above
Method: as §1, §3

[9] = target: T4, cynomolgus ICOS; assay: flow cytometry, activated cynomolgus PBMCs, CD4+ subset
Method: as §1, §3

[10] = target: T3, human ICOS; assay: flow cytometry on CHO cells stably expressing human ICOS, AF647-labelled anti-human Fc secondary antibody, MFI
Method: as §1, §2

[11] = target: T3, human ICOS; assay: flow cytometry on human PBMCs pre-activated 48 h with PHA-L and IL-2, CD4+ subset, MFI
[12] = target: T3, human ICOS; assay: as above; remark: listed apart in the source
Method: as §1
Briefly, Peripheral blood mononuclear cells (PBMCs) were prepared by Histopaque (Sigma-Aldrich, Cat No. 10771-500ML Histopaque-1077) density centrifugation of enriched lymphocyte preparations of heparinized blood obtained from a Buffy Coat (“Blutspende Zürich”). The blood was diluted 1:2 with sterile DPBS and layered over Histopaque gradient (Sigma, #H8889). After centrifugation (450×g, 30 minutes, room temperature), the plasma above the PBMC-containing interphase was discarded and PBMCs transferred in a new falcon tube subsequently filled with 50 ml of PBS. The mixture was centrifuged (400×g, 10 minutes, room temperature), the supernatant discarded and the PBMC pellet washed twice with sterile PBS (centrifugation steps 350×g, 10 minutes). The resulting PBMC population was counted automatically (Cedex HiRes) and stored in RPMI1640 medium containing 10% FCS and 1% Glutamax (Gibco 35050061). […] After incubation the PBMCs were used for a subsequent binding experiment, as described above.

[13] = target: T5, human FAP; assay: flow cytometry, NIH/3T3-huFAP clone 19 cells; remark: listed apart in the source

EC50 (read off the curve) [1]: ~0.5 nM
EC50 [2]: 7.21 nM
EC50 [3]: 2.72 nM
EC50 [4]: 5.5 nM
EC50 [5]: 5.73 nM
EC50 [6]: 0.505 nM
EC50 [7]: 10.5 nM
EC50 [8]: 10.5 nM
EC50 [9]: 5.5 nM
EC50 (read off the curve) [10]: ~3 nM
B1: Molecule 9, bispecific 2+1 anti-ICOS (1167)/anti-FAP (4B9) huIgG1 P329GLALA kih (bispecific antibody)
heavy 1: EVRLLESGGGLVQPGGSLRLSCAASGFTFNTYAVHWVRQAPGKGLEWVSGIGGSGVRTYYADSVKGRLTISRDNSKNTLYLQMNSLRAEDTAIYFCAKDIYVADFTGYAFDIWGQGTMVTVSSASTKGPSVFPLAPSSKSTSGGTAALGCLVKDYFPEPVTVSWNSGALTSGVHTFPAVLQSSGLYSLSSVVTVPSSSLGTQTYICNVNHKPSNTKVDKKVEPKSCDKTHTCPPCPAPEAAGGPSVFLFPPKPKDTLMISRTPEVTCVVVDVSHEDPEVKFNWYVDGVEVHNAKTKPREEQYNSTYRVVSVLTVLHQDWLNGKEYKCKVSNKALGAPIEKTISKAKGQPREPQVCTLPPSRDELTKNQVSLSCAVKGFYPSDIAVEWESNGQPENNYKTTPPVLDSDGSFFLVSKLTVDKSRWQQGNVFSCSVMHEALHNHYTQKSLSLSPGGGGGSGGGGSGGGGSGGGGSEIVLTQSPGTLSLSPGERATLSCRASQSVTSSYLAWYQQKPGQAPRLLINVGSRRATGIPDRFSGSGSGTDFTLTISRLEPEDFAVYYCQQGIMLPPTFGQGTKVEIK
heavy 2: not shown
light: DIQMTQSPSSVSASVGDRVTITCRASQGINNFLAWYQQKPGKAPKLLIYDASSLQSGVPSRFAGSGSGTDFTLTISSLQPEDFATYYCQQYNFYPLTFGGGTMVEIKRTVAAPSVFIFPPSDRKLKSGTASVVCLLNNFYPREAKVQWKVDNALQSGNSQESVTEQDSKDSTYSLSSTLTLSKADYEKHKVYACEVTHQGLSSPVTKSFNRGEC
notes: also called FAP-ICOS (2+1)

binding result [11]: binds
B2: Molecule 41, CEA(A5H1EL1D)-ICOS(1167) 1+1 human IgG1 P329GLALA (bispecific antibody)
heavy 1: EIVLTQSPATLSLSPGERATLSCRASSSVTYIHWYQQKPGQAPRSWIYATSNLASGIPARFSGSGSGTDFTLTISSLEPEDFAVYYCQHWSSKPPTFGQGTKLEIKSSASTKGPSVFPLAPSSKSTSGGTAALGCLVKDYFPEPVTVSWNSGALTSGVHTFPAVLQSSGLYSLSSVVTVPSSSLGTQTYICNVNHKPSNTKVDKKVEPKSCDKTHTCPPCPAPEAAGGPSVFLFPPKPKDTLMISRTPEVTCVVVDVSHEDPEVKFNWYVDGVEVHNAKTKPREEQYNSTYRVVSVLTVLHQDWLNGKEYKCKVSNKALGAPIEKTISKAKGQPREPQVCTLPPSRDELTKNQVSLSCAVKGFYPSDIAVEWESNGQPENNYKTTPPVLDSDGSFFLVSKLTVDKSRWQQGNVFSCSVMHEALHNHYTQKSLSLSP
light 1: EVQLLESGGGLVQPGGSLRLSCAASGFTFTDYYMNWVRQAPGKGLEWLGFIGNKANAYTTEYSASVKGRFTISRDKSKNTLYLQMNSLRAEDTATYYCTRDRGLRFYFDYWGQGTTVTVSSASVAAPSVFIFPPSDEQLKSGTASVVCLLNNFYPREAKVQWKVDNALQSGNSQESVTEQDSKDSTYSLSSTLTLSKADYEKHKVYACEVTHQGLSSPVTKSFNRGEC
heavy 2: not shown
light 2: DIQMTQSPSSVSASVGDRVTITCRASQGINNFLAWYQQKPGKAPKLLIYDASSLQSGVPSRFAGSGSGTDFTLTISSLQPEDFATYYCQQYNFYPLTFGGGTMVEIKRTVAAPSVFIFPPSDRKLKSGTASVVCLLNNFYPREAKVQWKVDNALQSGNSQESVTEQDSKDSTYSLSSTLTLSKADYEKHKVYACEVTHQGLSSPVTKSFNRGEC

binding result [12]: binds
EC50 [13]: 4.45 nM
B3: Molecule 13, bispecific 2+1 anti-ICOS (1167)/anti-FAP (4B9) Crossfab-IgG P329G LALA inverted (bispecific antibody)
heavy 1: EVRLLESGGGLVQPGGSLRLSCAASGFTFNTYAVHWVRQAPGKGLEWVSGIGGSGVRTYYADSVKGRLTISRDNSKNTLYLQMNSLRAEDTAIYFCAKDIYVADFTGYAFDIWGQGTMVTVSSASTKGPSVFPLAPSSKSTSGGTAALGCLVEDYFPEPVTVSWNSGALTSGVHTFPAVLQSSGLYSLSSVVTVPSSSLGTQTYICNVNHKPSNTKVDEKVEPKSCDKTHTCPPCPAPEAAGGPSVFLFPPKPKDTLMISRTPEVTCVVVDVSHEDPEVKFNWYVDGVEVHNAKTKPREEQYNSTYRVVSVLTVLHQDWLNGKEYKCKVSNKALGAPIEKTISKAKGQPREPQVCTLPPSRDELTKNQVSLSCAVKGFYPSDIAVEWESNGQPENNYKTTPPVLDSDGSFFLVSKLTVDKSRWQQGNVFSCSVMHEALHNHYTQKSLSLSP
light 1: DIQMTQSPSSVSASVGDRVTITCRASQGINNFLAWYQQKPGKAPKLLIYDASSLQSGVPSRFAGSGSGTDFTLTISSLQPEDFATYYCQQYNFYPLTFGGGTMVEIKRTVAAPSVFIFPPSDRKLKSGTASVVCLLNNFYPREAKVQWKVDNALQSGNSQESVTEQDSKDSTYSLSSTLTLSKADYEKHKVYACEVTHQGLSSPVTKSFNRGEC
heavy 2: not shown
light 2: EVQLLESGGGLVQPGGSLRLSCAASGFTFSSYAMSWVRQAPGKGLEWVSAIIGSGASTYYADSVKGRFTISRDNSKNTLYLQMNSLRAEDTAVYYCAKGWFGGFNYWGQGTLVTVSSASVAAPSVFIFPPSDEQLKSGTASVVCLLNNFYPREAKVQWKVDNALQSGNSQESVTEQDSKDSTYSLSSTLTLSKADYEKHKVYACEVTHQGLSSPVTKSFNRGEC
